Target: T1, Recombinant Human Insulin Receptor (28-956) (human, UniProt P06213 28-956)
T1 construct: range 28-956; Bought soluble receptor used as the analyte; also called soluble insulin receptor; SIR
Experiment: SPR (BIAcore), peptide immobilized on CM5 by amine coupling, SIR as analyte 0.781-100 nM
Experimental: The ligand was immobilized on the sensor chip CM5 research grade (Biacore AB) by the amine coupling method. Thus, the peptide mentioned above was dissolved in 20 mM carbonate buffer (pH 8.5) (500 μg/ml), and 100 μl of the solution was passed through the flow cell at a flow rate of 5 μl/min. The amount of the peptide immobilized was 200 RU (resonance units).
Recombinant Human Insulin Receptor (28-956) (GT/TECHNE Corp.) was used as the analyte soluble insulin receptor (SIR). To 50 mg in a vial was added HBS-EP buffer (250 ml) for thorough dissolution ([…]), and the solution was 10-fold diluted to give a 100 nM solution. Eight concentration levels from 100 nM to 0.781 nM were prepared by subsequent repetitions of doubling dilution, and measurements were carried out using HBS-EP buffer (10 mM HEPES pH 7.4, 0.15M NaCl, 3 mM EDTA, 0.005% Surfactant P20) (Biacore AB) as a running solution; the rate of flow was 10 μl/min. A sensorgram was thus obtained.
Recombinant Human Insulin Receptor (28-956) (GT/TECHNE Corp.) was used as the analyte SIR. Eight concentration levels from 100 nM to 0.781 nM were prepared by subsequent repetitions of doubling dilution, which was started from diluting 100 nM solution, and measurements were carried out using HBS-EP buffer as a running solution; the rate of flow was 10 μl/min. A sensorgram was thus obtained.

Row | Kd [µM] | Binder
1 | 12 | CQHILGSDIVEGIYL (Chemically synthesized; immobilized on a CM5 sensor chip by amine coupling (270 RU) for the Biacore assay; also called Peptide 21) [peptide P21]
2 | 1.6 | CASDIVEGLYIVLAER (Chemically synthesized by the Fmoc method; immobilized on a CM5 sensor chip by amine coupling (200 RU) for the Biacore assay; also called Peptide 14) [peptide P14]
3 | 24 | CASDIVEGIYL (Chemically synthesized; immobilized on a CM5 sensor chip by amine coupling (130 RU) for the Biacore assay; also called Peptide 15) [peptide P15]

— patent US20080132679A1 (KANEKA, published 2008)
